From patent US7888090B2, “Mutants of O6-alkylguanine-DNA alkyltransferase” (Ecole Polytechnique Federale de Lausanne, priority 2004, dated 2011)
Substitutions are numbered along the chain they refer to.

How the values were obtained:
[1] = BG-Cy3 activity assay (reaction rate of AGT mutants); assay type: biochemical; conditions: divided by value for wild type hAGT
Method: Reactivity against DNA-based substrates measured with a BG-Cy3 assay: BG-Cy3 is prepared by reacting the previously described O^6-(4-aminomethyl-benzyl)guanine (Keppler et al., NatureBiotechnol. 21:86-89, 2003) with the commercially available N-hydroxysuccinimide ester of Cy3, (Cy3-NHS, Amersham). The coupling reaction is performed at ambient temperature in N,N-dimethylformamide in the presence of 1 eq. of triethylamine. The BG-Cy3 conjugate is purified by reversed-phase HPLC on a C18-column by using linear gradients from 0.1% trifluoroacetic acid to acetonitrile. After solvent evaporation BG-Cy3 is dissolved in dimethyl sulfoxide and stored at −20° C. For measuring the reactivity with DNA-based substrates, a reaction mixture containing different concentrations (0 to 5 µM) of oligonucleotide SEQ ID NO:2 (modified in position 14), GST-AGT fusion protein at 0.2 µM and BG-Cy3 at […] in reaction buffer (50 mM HEPES, pH 7.2, 1 mM DTT, 200 mg/ml BSA) is incubated in microtiterplates. Fluorescence of the Cy3 derivative (excitation 519 nm, emission at 572 nm) is measured on a Spectramax Gemini plate reader (Molecular Devices).
The amplified products are cloned in fusion to the g3 gene of filamentous phage in the vector pAK100 via SfiI restriction sites. The resulting gene libraries are used for phage display as described under Example 4. The mutants of the libraries are selected with 5 to 50 nM of BG-Bt for 10 min. Selected mutants are subcloned into pGEX using the primers SEQ ID NO:3 and SEQ ID NO:13. The reaction rate of mutant AGTs is determined as described in Example 6, Reactivity against DNA-based substrates (BG-Cy3 assay).
For the activity assay purified GST fusion proteins were used for mutants marked with “p.” (prepared as described under Example 1); periplasmic extracts were used for mutants marked with “x.” (prepared as described under Example 2).

[2] = Expression yield of soluble GST-AGT fusion protein; design: species or system E. coli; conditions: comparator not stated
Method: Expression yield is measured in E. coli or in any other of the standard production cells for genetically modified proteins, e.g. yeast, or preferably insect cells, CHO cells or HeLa cells. For quantifying expression yield, AGT fusion proteins may be chosen such that the fusion partner allows easy purification and quantification. For example, expression yield in E. coli is determined by measuring and comparing the yield of soluble and insoluble GST-wild type AGT fusion protein and GST-mutant AGT fusion protein from parallel E. coli expression cultures. Samples of the soluble fractions and insoluble fractions (i.e. the inclusion bodies) after cell lysis are subjected to SDS-PAGE, and the band staining intensities of the corresponding AGT fusion proteins are compared. Soluble protein is quantified after purification of the fusion protein from cell extracts by affinity chromatography (e.g. for GST-AGT fusion proteins by glutathione sepharose) by subjecting the purified fractions to a protein concentration assay (Bradford, Anal Biochem 72:248-54, 1976). The expression yield of similar proteins in the soluble fraction (difference in point mutations) can be used as a measure for protein stability in the unpurified as well as the purified state (Ohage et al., J Mol Biol 291:1119-1128, 1999; Wirtz et al., Protein Sci 8: 2245-50, 1999). Therefore, this is taken as a measure of folding stability and aggregation tendency.
Protein expression from this vector is carried out in E. coli strain BL21. An exponentially growing culture is induced with 0.5 mM IPTG, and the expression is carried out for 3.5 h at 24° C.
Purification: The harvested cells are resuspended in a buffer containing 50 mM phosphate, 0.5 M NaCl, 1 mM DTT, supplemented with 1 mM PMSF and 2 μg/ml aprotinin, and disrupted by lysozyme and sonification. The cell debris are separated by centrifugation at 40000×g. The extract is applied to pre-equilibrated glutathione sepharose (Amersham) which is then washed with 20 bed volumes (50 mM phosphate, 0.5 M NaCl, 1 mM DTT). The mutated GST-AGT fusion protein is eluted with 10 mM reduced glutathione in 50 mM Tris·HCl pH 7.9. The purified protein is dialyzed against 50 mM HEPES pH 7.2; 1 mM DTT; 30% glycerol and then stored at −80° C.
Determination of protein yield: Purity and relative amounts of the GST-AGT fusion proteins are compared by running samples on SDS-PAGE. UV spectra of the pure fractions are recorded using a Perkin Elmer Lambda 10. For protein samples containing no significant amount of DNA, the extinction at 280 nm as a measure of protein content is compared to that of wild type hAGT or PGEG-hAGT that were purified under the same conditions.

[3] = Activity assay with biotinylated O^6-benzylguanine (BG-Bt), Western blotting; assay type: biochemical; conditions: statement in words
Method: Activity towards O^6-benzylguanine substrates is measured as described by Juillerat et al., Chem Biol 10:313-317, 2003.
Activity assay: Purified mutated GST-AGT is incubated in vitro with a biotinylated O^6-benzylguanine (BG-Bt, substance 3a of Juillerat et al., Chem Biol 10:313-317, 2003). In a total reaction volume of 80 […]I, 0.2 µM GST-AGT are incubated with 1 µM substrate in 50 mM HEPES pH 7.2 and 1 mM DTT at room temperature. At several points of time an aliquot is quenched with 1 mM O^6-benzylguanine (Sigma) in SDS-Laemmli buffer and subjected to Western blotting analysis (neutravidin-peroxidase conjugate (PIERCE), Renaissance reagent plus (NEN)). The intensity of the corresponding bands is quantified by a Kodak Image Station 440.

[4] = purified GST fusion proteins (p.)

B1: Lys104Glu, Thr127Ala, Ala154Thr: AGT mutant having all mutations of AGTM and additionally those listed (protein, UniProt P16455 1-207, looked up, variant C62A K104E Q115S Q116H K125A R128A G131K G132T M134L R135S C150N S151I S152N A154T N157G S159E del183-207)
Methylated-DNA--protein-cystei …: MDKDCEMKRTTLDSPLGKLELSGCEQGLHEIKLLGKGTSAADAVEVPAPAAVLGGPEPLMQATAWLNAYFHQPEAIEEFPVPALHHPVFQQESFTRQVLWKLLEVVKFGEVISYSHLAALAGNPAAAAAVKTALSGNPVPILIPCHRVVNINGTVGGYEGGLAVKEWLLAHEGHRLGKPGLG
[1]; periplasmic extracts (x.)
  Relative reaction rate: 12.34

B2: Asn150Glu, lle151Gly, Asn152Trp, Gly153Asn, Ala154Glu: AGT mutant having all mutations of AGTM and additionally those listed (protein, UniProt P16455 1-207, looked up, variant C62A Q115S Q116H K125A A127T R128A G131K G132T M134L R135S C150E S151G S152W G153N A154E N157G S159E del183-207)
Methylated-DNA--protein-cystei …: B1 Methylated-DNA--protein-cystei … with E104K, A127T, N150E, I151G, N152W, G153N, T154E
[1]; [4]
  Relative reaction rate: 11.97

B3: Lys8Thr, Thr127Ala, Ala154Thr, His174Arg: AGT mutant having all mutations of AGTM and additionally those listed (protein, UniProt P16455 1-207, looked up, variant K8T C62A Q115S Q116H K125A R128A G131K G132T M134L R135S C150N S151I S152N A154T N157G S159E H174R del183-207)
Methylated-DNA--protein-cystei …: B1 Methylated-DNA--protein-cystei … with K8T, E104K, H174R
[1]; periplasmic extracts (x.)
  Relative reaction rate: 15.66

B4: Asn150Val, lle151Ser, Asn152Arg, Gly153Asp, Ala154Asp: AGT mutant having all mutations of AGTM and additionally those listed (protein, UniProt P16455 1-207, looked up, variant C62A Q115S Q116H K125A A127T R128A G131K G132T M134L R135S C150V S152R G153D A154D N157G S159E del183-207)
Methylated-DNA--protein-cystei …: B1 Methylated-DNA--protein-cystei … with E104K, A127T, N150V, I151S, N152R, G153D, T154D
[1]; [4]
  Relative reaction rate: 21.26

B5: Ala154Thr: AGT mutant having all mutations of AGTM and additionally those listed (protein, UniProt P16455 1-207, looked up, variant C62A Q115S Q116H K125A A127T R128A G131K G132T M134L R135S C150N S151I S152N A154T N157G S159E del183-207)
Methylated-DNA--protein-cystei …: B1 Methylated-DNA--protein-cystei … with E104K, A127T
[1]; [4]
  Relative reaction rate: 14.90

B6: Gln115Ser, Gln116His, Cys150Asn, Ser151Ile, Ser152Asn, Asn157Gly, Ser159Glu: hAGT mutant with the listed mutations, selected by phage display (protein, UniProt P16455 1-207, looked up, variant Q115S Q116H C150N S151I S152N N157G S159E)
Methylated-DNA--protein-cystei …: MDKDCEMKRTTLDSPLGKLELSGCEQGLHEIKLLGKGTSAADAVEVPAPAAVLGGPEPLMQCTAWLNAYFHQPEAIEEFPVPALHHPVFQQESFTRQVLWKLLKVVKFGEVISYSHLAALAGNPKAARAVGGAMRGNPVPILIPCHRVVNINGAVGGYEGGLAVKEWLLAHEGHRLGKPGLGGSSGLAGAWLKGAGATSGSPPAGRN
[2]
  expression yield in E. coli: substantially increased expression yield
[3]
  activity towards O^6-benzylguanine substrates: retains activity

B7: Cys62Ala, Lys125Ala, Ala127Thr, Arg128Ala, Asn157Gly, Ser159Glu: hAGT mutant with the listed mutations (protein, UniProt P16455 1-207, looked up, variant C62A K125A A127T R128A N157G S159E)
Methylated-DNA--protein-cystei …: B6 Methylated-DNA--protein-cystei … with C62A, S115Q, H116Q, K125A, A127T, R128A, N150C, I151S, N152S
[3]
  activity towards O^6-benzylguanine substrates: retains activity

B8: truncated PGEG-hAGT: PGEG-hAGT (Asn157Gly, Ser159Glu) truncated after codon 182 (protein, UniProt P16455 1-207, looked up, variant N157G S159E del183-207)
Methylated-DNA--protein-cystei …: MDKDCEMKRTTLDSPLGKLELSGCEQGLHEIKLLGKGTSAADAVEVPAPAAVLGGPEPLMQCTAWLNAYFHQPEAIEEFPVPALHHPVFQQESFTRQVLWKLLKVVKFGEVISYQQLAALAGNPKAARAVGGAMRGNPVPILIPCHRVVCSSGAVGGYEGGLAVKEWLLAHEGHRLGKPGLG
[3]
  activity towards O^6-benzylguanine substrates: retains activity
